In article PMC8263624, “Asymmetric reconstruction of mammalian reovirus reveals interactions among RNA, transcriptional factor µ2 and capsid proteins” (Nature Communications, 2021):

B1: RdRp-bound nucleoside triphosphatase μ2 (enzyme)
chain: MAYIAVPAVVDSRSSEAIGLLESFGVDAGADANDVSYQDHDYVLDQLQYMLDGYEAGDVIDALVHKNWLHHSVYCLLPPKSQLLEYWKSNPSAIPDNVDRRLRKRLMLKKDLRKDDEYNQLARAFKISDVYAPLISSTTSPMTMIQNLNRGEIVYTTTDRVIGARILLYAPRKYYASTLSFTMTKCIIPFGKEVGRVPHSRFNVGTFPSIATPKCFVMSGVDIESIPNEFIKLFYQRVKSVHANILNDISPQIVSDMINRKRLRVHTPSDRRAAQLMHLPYHVKRGASHVDVYKVDVVDMLFEVVDVADGLRNVSRKLTMHTVPVCILEMLGIEIADYCIRQEDGMLTDWFLLLTMLSDGLTDRRTHCQYLMNPSSVPPDVILNISITGFINRHTIDVMPDIYDFVKPIGAVLPKGSFKSTIMRVLDSISILGIQIMPRAHVVDSDEVGEQMEPTFEQAVMEIYKGIAGVDSLDDLIKWVLNSDLIPHDDRLGQLFQAFLPLAKDLLAPMARKFYDNSMSEGRLLTFAHADSELLNANYFGHLLRLKIPYITEVNLMIRKNREGGELFQLVLSYLYKMYATSAQPKWFGSLLRLLICPWLHMEKLIGEADPASTSAEIGWHIPREQLMQDGWCGCEDGFIPYVSIRAPRLVIEELMEKNWGQYHAQVIVTDQLVVGEPRRVSAKAVIKGNHLPVKLVSRFACFTLTAKYEMRLSCGHSTGRGAAYSARLAFRSDLA
notes: NTPase μ2 of mammalian reovirus serotype Dearing 3, native in the virus particle; 736 residues in all, 680 modelled; RBD 1-264, NTPase domain 265-607, CTD 608-736; also called NTPase; NTPase μ2
B2: RNA-dependent RNA polymerase (RdRp) λ3 (enzyme)
chain: MSSMILTQFGPFIESISGITDQSNDVFEDAAKAFSMFTRSDVYKALDEIPFSDDAMLPIPPTIYTKPSHDSYYYIDALNRVRRKTYQGPDDVYVPNCSIVELLEPHETLTSYGRLSEAIENRAKDGDSQARIATTYGRIAESQARQIKAPLEKFVLALLVAEAGGSLYDPVLQKYDEIPDLSHNCPLWCFREICRHISGPLPDRAPYLYLSAGVFWLMSPRMTSAIPPLLSDLVNLAILQQTAGLDPSLVKLGVQICLHAAASSSYSWFILKTKSIFPQNTLHSMYESLEGGYCPNLEWLEPRSDYKFMYMGVMPLSAKYARSAPSNDKKARELGEKYGLSSVVGELRKRTKTYVKHDFASVRYIRDAMACTSGIFLVRTPTETVLQEYTQSPEIKVPIPQKDWTGPIGEIRILKDTTSSIARYLYRTWYLAAARMAAQPRTWDPLFQAIMRSQYVTARGGSGAALRESLYAINVSLPDFKGLPVKAATKIFQAAQLANLPFSHTSVAILADTSMGLRNQVQRRPRSIMPLNVPQQQVSAPHTLTADYINYHMNLSPTSGSAVIEKVIPLGVYASSPPNQSINIDISACDASITWDFFLSVIMAAIHEGVASSSIGKPFMGVPASIVNDESVVGVRAARPISGMQNMIQHLSKLYKRGFSYRVNDSFSPGNDFTHMTTTFPSGSTATSTEHTANNSTMMETFLTVWGPEHTDDPDVLRLMKSLTIQRNYVCQGDDGLMIIDGTTAGKVNSETIQNDLELISKYGEEFGWKYDIAYDGTAEYLKLYFIFGCRIPNLSRHPIVGKERANSSAEEPWPAILDQIMGVFFNGVHDGLQWQRWIRYSWALCCAFSRQRTMIGESVGYLQYPMWSFVYWGLPLVKAFGSDPWIFSWYMPTGDLGMYSWISLIRPLMTRWMVANGYVTDRCSTVFGNADYRRCFNELKLYQGYYMAQLPRNPKKSGRAASREVREQFTQALSDYLMQNPELKSRVLRGRSEWEKYGAGIIHNPPSLFDVPHKWYQGAQEAAIATREELAEMDETLMRARRHSYSSFSKLLEAYLLVKWRMCEAREPSVDLRLPLCAGIDPLNSDPFLKMVSVGPMLQSTRKYFAQTLFMAKTVSGLDVNAIDSALLRLRTLGADKKALTAQLLMVGLQESEADALAGKIMLQDVNTVQLARVVNLAVPDTWMSLDFDSMFKHHVKLLPKDGRHLNTDIPPRMGWLRAILRFLGAGMVMTATGVAVDIYLEDIHGGGRSLGQRFMTWMRQEGRSA
notes: RdRp λ3 of mammalian reovirus serotype Dearing 3, native in the virus particle; domains stated as residues 1-386, 387-556 and 595-690, 557-594 and 691-792, 793-901, 902-1267; Part of the transcribing enzyme complex (TEC) with µ2; ten TECs in each particle

Experiments:
[1] = target: B2; assay: cryo-EM structure; asymmetric (C1) vertex sub-particle reconstructions of native MRV ISVP at 3.3 Å, asymmetric full ISVP at 4.3 Å; isolated virus particles in PBS pH 7.4; proteins assembled in the particle, in situ; details: both partners purified
[2] = target: T1, capsid shell protein (CSP) λ1 (Mammalian reovirus serotype Dearing 3, UniProt P15024 1-1275); assay: as above; details: both partners purified
T1 construct: capsid shell protein λ1 of mammalian reovirus serotype Dearing 3, native in the virus particle; 120 copies in each particle as λ1A/λ1B dimers; five pairs (1-5) around each vertex; also called λ1A; λ1B
T1 sequence: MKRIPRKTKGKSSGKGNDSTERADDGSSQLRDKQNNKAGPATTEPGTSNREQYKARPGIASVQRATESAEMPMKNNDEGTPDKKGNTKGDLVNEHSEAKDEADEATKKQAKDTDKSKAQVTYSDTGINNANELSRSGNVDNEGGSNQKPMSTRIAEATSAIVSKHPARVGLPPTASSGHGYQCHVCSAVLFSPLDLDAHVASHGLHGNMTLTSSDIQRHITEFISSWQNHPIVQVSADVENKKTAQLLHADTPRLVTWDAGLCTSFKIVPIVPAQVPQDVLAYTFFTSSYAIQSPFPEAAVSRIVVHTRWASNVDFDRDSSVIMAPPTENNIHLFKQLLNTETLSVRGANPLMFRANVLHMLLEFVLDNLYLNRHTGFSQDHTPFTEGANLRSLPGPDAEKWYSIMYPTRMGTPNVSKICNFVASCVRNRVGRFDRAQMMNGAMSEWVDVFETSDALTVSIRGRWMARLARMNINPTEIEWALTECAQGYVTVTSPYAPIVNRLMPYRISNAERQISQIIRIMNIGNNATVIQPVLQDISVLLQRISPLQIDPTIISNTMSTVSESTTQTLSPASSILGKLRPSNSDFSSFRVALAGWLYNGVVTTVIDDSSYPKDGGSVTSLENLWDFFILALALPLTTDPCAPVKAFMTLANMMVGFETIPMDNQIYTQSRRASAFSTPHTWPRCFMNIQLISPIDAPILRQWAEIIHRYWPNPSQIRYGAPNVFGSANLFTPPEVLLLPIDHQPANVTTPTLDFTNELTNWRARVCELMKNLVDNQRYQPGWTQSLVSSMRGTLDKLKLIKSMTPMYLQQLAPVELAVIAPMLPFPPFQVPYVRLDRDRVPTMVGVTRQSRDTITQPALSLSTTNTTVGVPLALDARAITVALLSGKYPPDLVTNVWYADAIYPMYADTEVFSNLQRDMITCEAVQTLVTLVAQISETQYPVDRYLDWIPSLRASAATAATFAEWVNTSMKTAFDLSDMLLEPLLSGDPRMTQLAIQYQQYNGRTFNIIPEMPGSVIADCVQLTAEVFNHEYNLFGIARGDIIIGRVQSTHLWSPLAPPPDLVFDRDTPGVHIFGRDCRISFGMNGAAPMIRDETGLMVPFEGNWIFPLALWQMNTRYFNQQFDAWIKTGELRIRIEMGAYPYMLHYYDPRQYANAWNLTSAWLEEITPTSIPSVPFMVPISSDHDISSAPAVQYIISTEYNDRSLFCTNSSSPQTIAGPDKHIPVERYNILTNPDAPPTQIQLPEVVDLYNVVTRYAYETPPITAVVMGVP

Row | Binder | binding result [1] | binding result [2]
1 | B1 | binds | binds
2 | B2 |  | binds
